Test results from the supplement of paper PMC12042874.
± gives the uncertainty stated by the source.

assay: amyloid nucleation score (Sup35N fusion, yeast selection) (log enrichment); library NNK2; higher = more nucleation; inactive = no reads after selection
In short: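 The nucleation score is the log enrichment of output over input reads, calculated with DiMSum and centred on the mode score of non-aggregating sequences. Sequences with under 100 input reads were excluded. Reads came from Illumina sequencing of plasmid inserts from psi-negative yeast expressing Sup35N fused to peptides of 20 random codons, induced 24 hours with 100 μM copper sulfate and grown 7 days at 30°C without adenine and uracil.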

Substance	amyloid nucleation score
LKYVVTVHIMFMLSSWSQGC	-0.814 ± 0.79
LLCCMWFDRWLWTGLAWITV	0.247 ± 0.24
LLCRTCFRVQYAYDNLVMFL	inactive
LLEAQSISCYRRGVYLLGQL	3.32 ± 0.067
LLEFTLLTISQRPYTWNTVE	0.862 ± 0.17
LLFARK	-0.038 ± 1.1
LLFLRYVVYFGNLDCLGLYM	-1.44 ± 1
LLFPQANMKDRSSPGVDWAQ	2.72 ± 0.068
LLGMVNTQLKGNHSYTYKSG	-1.14 ± 0.55
LLHIFLYGLSLILWWSHRTR	7.06 ± 0.079
LLIREMEHLFVEAKVENLRE	0.531 ± 0.33
LLKGVASVQSTDAVRHMWSS	0.252 ± 0.8
LLLTLCSDHMLNGNVVGHDW	4.05 ± 0.049
LLPRDALFPPIFVIISECVF	-0.063 ± 0.45
LLSVCFSRARC	1.07 ± 0.23
LLTCTYMQF	-0.124 ± 0.54
LLTGVISGYQIRWGTTSLNG	2.49 ± 0.1
LLTMGVGRVGAWEQN	0.801 ± 0.82
LLVGLIASPPGGTGVTLFPT	4.15 ± 0.049
LLWQTYIPNAGENAVSSQLF	-0.87 ± 1
LMAKVRLRVGLGHWLDVWG	2.93 ± 0.12
LMGKGMSTLGDDGVFSRG	-0.378 ± 0.49
LMINGRLRDITMDATVYCNS	0.764 ± 0.2
LMVSRFVF	-0.206 ± 0.76
LNCTYN	-0.311 ± 0.79

Substance	amyloid nucleation score
LNEVFDLVPSYCKFSVVRGL	-1.14 ± 0.64
LNFFNDR	inactive
LNIHLFSVTGLCDEC	-0.344 ± 0.76
LNIQFGGSLHWKSGGVATEA	0.103 ± 0.28
LNKNRHGVGIFGIIKYKDMT	inactive
LNKQRSCFNVMGGWRKIYPS	0.783 ± 0.13
LNLSWVCSLGRYFVGGYISF	-1.29 ± 0.63
LNMVFW	inactive
LNNIFDLQYWQLWMSRQVKS	0.809 ± 0.14
LNNLLS	0.315 ± 0.46
LNNNGASNGFTTYSALNVG	-0.59 ± 0.28
LNRFGSSNSLITKFC	-1.58 ± 1
LNVMFCNVVNGFYYMDSFVC	6.838 ± 0.044
LNWGSNIQAGVHTSRPWGSY	0.248 ± 0.43
LNYRH	inactive
LNYTRCQGSTKVDHSLGNLM	-0.482 ± 0.31
LPHESFNQHGKLFMAD	0.054 ± 0.46
LPKREPGDKGTLLYYDQELS	0.167 ± 0.53
LPQMNMGFLGSLNFEGMKRA	1.47 ± 0.2
LPVGPLVRDNTWHRRVQRWL	1.11 ± 0.29
LPVHANNGVNMFILIVPPGS	5.948 ± 0.051
LQCIGNYSDWGSMVGREQSK	-0.066 ± 1
LQDYCACNGVSCCIVYCKSF	8.693 ± 0.053
LQLASNVHEHKQNGLSHRIN	0.439 ± 0.5
LRAWDYRISNSHTRLDIDFT	inactive

Substance	amyloid nucleation score
LRFRGV	0.339 ± 0.28
LRGSFNLVSYFTQLRSCDYF	-1.27 ± 0.78
LRGYVY	0.228 ± 1
LRIGRYQN	inactive
LRPDSNWTGVESLFR	-0.66 ± 0.55
LRPDYLERYFWLWHSTDKLF	-1.14 ± 0.49
LRQYKRALAVGLDWFPSVLR	0.113 ± 0.8
LRRTTGYSKLTCLTHG	4.34 ± 0.048
LRRVSGRLDSIWSWCVRCNE	-1.02 ± 1.1
LRSHLEYGRLCVCTQELMRR	4.882 ± 0.041
LRSSKKCYTILYVSYTLK	-1.15 ± 1.1
LRSWSLAMRGDIMGTVRWLR	0.413 ± 0.56
LRVWYDSSAVDMLNVLMSFP	5.737 ± 0.032
LRWAYMNTARQACMKAENG	-0.079 ± 0.62
LRWDGEDWRWDALWVTSSVC	0.512 ± 0.2
LRYIFKMS	-1.34 ± 0.49
LRYVVNPF	-0.979 ± 0.37
LSASW	1.44 ± 0.38
LSILCGDCSDGRS	-0.245 ± 0.2
LSLLVSLTRTMFNLNNTCTA	-0.17 ± 0.65
LSMERSVGFYDTVTLWLQRK	5.9 ± 0.056
LSNAYRTGFPLICSLNNHRH	1.03 ± 0.68
LSNLEAEAWMRAYCIRVKIT	2.16 ± 0.1
LSNYARGRVDVTLKNYLLLE	0.476 ± 0.51
LSPLIAAHSTERVYWY	0.262 ± 0.46

Substance	amyloid nucleation score
LSPPYYYHMNCLPYNMSIWP	2.39 ± 0.09
LSPYYSLCVSGSTWSAVQPL	0.476 ± 0.51
LSRESTCIFSMNKDVFS	0.016 ± 1.1
LSRIRVHSIRLYSVFPVMFC	3.67 ± 0.072
LSRLNFGIFDKVTAATGLMK	-1.26 ± 0.78
LSRQFRRYLMLSLFYFVLLP	-1.21 ± 0.38
LSSHVCGGM	4.8 ± 0.054
LSTANSNSRAVFIIKMRGLL	inactive
LSYLHG	-0.913 ± 0.63
LSYRRFFRLILKGAVG	inactive
LSYVWYTQIARPGNSGFNLL	2.12 ± 0.14
LTCSKSPIWWAIIFVGYFTN	0.022 ± 0.62
LTIRGKVTSTVAMLLDFLDS	5.86 ± 0.062
LTIVWLVVVYGLWGVSTFSL	inactive
LTLHICRAAVYSYGTLS	1.63 ± 0.12
LTLIVNPLVNSPPGPQASLT	0.735 ± 0.23
LTLLHFRREDTHCSGTGTPC	1 ± 0.2
LTRMKT	-0.311 ± 0.63
LTSFGDEC	-0.153 ± 1.1
LTSNPVPSNLT	3.35 ± 0.076
LTSSA	-0.315 ± 0.49
LTTVGHSVKLSWRVLSG	1.9 ± 0.18
LTVDCQDSLLYWHRMMSRPL	0.853 ± 0.31
LTYRVCHEVQGQRYCMAREH	0.174 ± 0.74
LTYYLSYCHYRRTYLAGLLQ	-0.249 ± 0.2

Substance	amyloid nucleation score
LVEFSSRFQLGFTGSVNS	1.21 ± 0.16
LVFHRVTWLTDNMQWKGTPG	3.2 ± 0.078
LVFKAPRTITSPCCYGSNWS	0.504 ± 0.36
LVFMAFC	4.839 ± 0.04
LVGHYSDRDYVEYARRDCAG	0.252 ± 0.8
LVGVPNYVRMHYARLSLTAL	inactive
LVHSLDFL	-0.389 ± 0.61
LVISM	0.348 ± 0.46
LVKKWVWLLCCYRISWGRLR	-0.346 ± 0.28
LVKLEKHRLKVVNDYNSFEG	inactive
LVKLEYALSVFRENSGSNLN	1.07 ± 0.3
LVLAGSYDRCLPSCVVMRKG	0.461 ± 0.64
LVLLKGYKRSNNGKQCYAGL	0.365 ± 0.66
LVLPYSGTHAGLRVWCGSSV	0.696 ± 0.34
LVNFSSLIV	-2.07 ± 1.1
LVQCLLYSLWCQALSQPMYV	-0.753 ± 1
LVRHFIHGSTA	-1.23 ± 0.49
LVRMIYTYSVRSDSVSFKSF	-0.132 ± 0.38
LVSMLVFL	2.15 ± 0.15
LVTLRKMDPSPRRVIFNVCN	0.935 ± 0.39
LVVLWK	6.01 ± 0.061
LVWRDV	0.729 ± 0.51
LVYESSDYFVNIIEDNLLVS	inactive
LVYTPCLILGDELAVTGVKR	-0.337 ± 0.23
LWAYPLSMLWGKLFMDGMLL	-0.486 ± 0.27

Substance	amyloid nucleation score
LWCPVHRAYGYAIHSVKGAH	1.04 ± 0.34
LWFLS	0.393 ± 0.33
LWNWRACARLG	1.25 ± 0.24
LWREYLVHGSP	0.329 ± 0.5
LWVVQTVDHTSKSSSVWSSL	4.16 ± 0.078
LYCDECISWYAHDWLNI	0.409 ± 0.45
LYCIVQGKSSGIHQRATFCF	inactive
LYDWRWSWSRSATSSFGWLT	0.296 ± 0.49
LYETSMNDPMRVHHLRCEFI	-0.254 ± 0.56
LYFDVTQ	-0.611 ± 0.32
LYGHSVNMVV	-0.224 ± 0.39
LYGIVITTLSSYCGGFLNSR	inactive
LYGMF	-0.261 ± 0.63
LYIDIRRSCLVCNGMSWRAG	5.865 ± 0.052
LYIYLNYFNTAVTFYGCVCS	3.94 ± 0.052
LYKVYVFYNNNVVMVRLALK	inactive
LYLTYKVVHTSTPPVASYCE	5.855 ± 0.033
LYQMCIRLI	-0.657 ± 0.55
LYQWSGLIKSVLNSGCGKVE	0.315 ± 0.54
LYRFAMLLRLGARSVNMLGK	-0.573 ± 1.1
LYRFSNST	-0.968 ± 0.29
LYSMSHCWHVQCWEFDSYVG	-0.174 ± 0.23
LYSTRRCHVRELVPLLGARS	0.362 ± 0.25
LYTRMPMYGHSEKFLVCESS	-0.486 ± 0.27
LYVNLRCRNYYVAVPVGDWD	4.9 ± 0.068

Substance	amyloid nucleation score
LYYVMSPWLITSRAWDGSSS	0.778 ± 0.67
MAELLHKYGYKDAVRNIHPY	0.641 ± 0.62
MAGVTPLELLCGPNQFALMR	1.95 ± 0.48
MAKIFFPNRQVIPPTRMQRV	1.12 ± 0.47
MCCGISMVFGDCSQVSVLIR	8.847 ± 0.047
MCCPRSNFGYPFHVNLDMWG	-0.186 ± 0.55
MCDIVHY	-0.446 ± 0.79
MCEYLWCMGACNQASLTYLS	5.787 ± 0.032
MCSMCIVLPPVCVLKAKVYT	3.69 ± 0.081
MCTGVPINGFWVCPYDQSGK	0.108 ± 0.33
MCWVANNVTNPVEVEYERSL	-0.821 ± 1.1
MDAYRCWAQMYRTYMLMCLV	0.039 ± 0.27
MDGNDYAVVR	0.861 ± 0.23
MDKFFFSFTYGGLSQPDQGV	-1.35 ± 1.1
MDLMGCLYYPDT	1.05 ± 0.35
MDLRWKSSGRKVNLNRLIQR	4.647 ± 0.036
MDPYYRKICSCDVGVNYRFL	inactive
MDWVQGAFMPRGSGHWHN	-0.327 ± 0.79
MDYWVFMPFQLHRLCCYTPL	-0.303 ± 0.24
MEGVAK	0.331 ± 0.8
MEKVHV	1.65 ± 0.48
